pKd: −log10 of the molar value.
Tests used:
[1] = target: integrin α5β1, intact, on wild type K562 cells (human (endogenous in K562)) (UniProt P08648); assay: flow cytometry on cells; saturation binding of cRGDfK-TF5WS to K562 cells in L15 with 2 µM 12G10 Fab, which stabilizes the EO state (intrinsic affinity for the EO state); no washing
[2] = target: integrin αVβ5, intact, on K562 αVβ5 stable transfectants (human) (UniProt P06756); assay: flow cytometry on cells; saturation binding of cRGDfK-TF5WS to K562 transfectants in L15 medium with 1% BSA and 1 mM Mn2+, no washing; background MFI measured with 10 mM EDTA and subtracted
Chain of integrin αVβ5, intact, on K562 αVβ5 stable transfectants (human) (P06756 31-1048, chain 1 of 2): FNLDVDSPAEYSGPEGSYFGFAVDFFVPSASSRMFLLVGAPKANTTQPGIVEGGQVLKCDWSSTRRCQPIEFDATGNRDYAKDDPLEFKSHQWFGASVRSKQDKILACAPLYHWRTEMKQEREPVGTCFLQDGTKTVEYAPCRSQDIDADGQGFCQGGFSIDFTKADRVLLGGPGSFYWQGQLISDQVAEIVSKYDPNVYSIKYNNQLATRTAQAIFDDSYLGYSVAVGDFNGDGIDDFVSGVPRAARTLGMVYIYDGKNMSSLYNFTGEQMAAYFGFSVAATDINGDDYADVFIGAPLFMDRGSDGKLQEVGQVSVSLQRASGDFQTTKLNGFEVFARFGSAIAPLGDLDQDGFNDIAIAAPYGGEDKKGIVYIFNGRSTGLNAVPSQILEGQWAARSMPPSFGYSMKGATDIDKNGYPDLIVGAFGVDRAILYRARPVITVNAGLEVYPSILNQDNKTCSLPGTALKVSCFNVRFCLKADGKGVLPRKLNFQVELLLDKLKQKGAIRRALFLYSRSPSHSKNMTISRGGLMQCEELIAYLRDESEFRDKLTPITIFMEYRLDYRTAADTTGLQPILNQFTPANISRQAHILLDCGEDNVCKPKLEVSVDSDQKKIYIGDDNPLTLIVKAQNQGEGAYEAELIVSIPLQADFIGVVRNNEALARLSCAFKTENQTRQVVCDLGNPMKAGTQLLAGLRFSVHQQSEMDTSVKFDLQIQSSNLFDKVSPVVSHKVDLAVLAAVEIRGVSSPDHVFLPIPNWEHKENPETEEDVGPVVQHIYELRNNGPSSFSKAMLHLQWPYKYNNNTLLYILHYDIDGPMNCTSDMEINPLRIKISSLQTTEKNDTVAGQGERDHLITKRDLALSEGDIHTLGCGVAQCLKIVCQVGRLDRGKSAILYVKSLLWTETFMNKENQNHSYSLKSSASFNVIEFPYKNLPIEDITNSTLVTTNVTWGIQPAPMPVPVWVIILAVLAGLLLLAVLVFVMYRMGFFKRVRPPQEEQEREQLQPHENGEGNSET
Chain of integrin αVβ5, intact, on K562 αVβ5 stable transfectants (human) (P18084 24-799, chain 2 of 2, further chain): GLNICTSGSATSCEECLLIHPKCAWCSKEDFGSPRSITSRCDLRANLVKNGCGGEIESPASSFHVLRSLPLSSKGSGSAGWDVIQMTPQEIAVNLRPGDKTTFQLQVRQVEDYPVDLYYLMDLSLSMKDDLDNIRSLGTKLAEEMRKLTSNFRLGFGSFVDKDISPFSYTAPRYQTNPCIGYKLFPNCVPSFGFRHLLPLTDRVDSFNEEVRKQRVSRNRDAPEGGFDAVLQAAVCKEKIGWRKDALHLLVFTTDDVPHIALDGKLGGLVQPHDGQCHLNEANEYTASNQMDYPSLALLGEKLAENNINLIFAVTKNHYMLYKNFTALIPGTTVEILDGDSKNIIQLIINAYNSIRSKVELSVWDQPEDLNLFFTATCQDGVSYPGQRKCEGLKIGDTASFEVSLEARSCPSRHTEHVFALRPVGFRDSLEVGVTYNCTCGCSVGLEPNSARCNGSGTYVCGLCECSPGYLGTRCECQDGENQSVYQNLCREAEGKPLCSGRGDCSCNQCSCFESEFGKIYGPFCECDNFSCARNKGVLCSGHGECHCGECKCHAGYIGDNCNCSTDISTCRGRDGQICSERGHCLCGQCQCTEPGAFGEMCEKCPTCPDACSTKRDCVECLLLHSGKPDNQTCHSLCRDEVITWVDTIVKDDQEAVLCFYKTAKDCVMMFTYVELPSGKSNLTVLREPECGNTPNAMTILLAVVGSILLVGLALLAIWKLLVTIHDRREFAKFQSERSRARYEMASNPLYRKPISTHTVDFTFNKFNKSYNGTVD

[3] = target: integrin αVβ3, intact, on K562 αVβ3 stable transfectants (human) (UniProt P06756); assay: as above
Chain of integrin αVβ3, intact, on K562 αVβ3 stable transfectants (human) (P06756 31-1048, chain 1 of 2): as the sequence (P06756 31-1048, chain 1 of 2) above
Chain of integrin αVβ3, intact, on K562 αVβ3 stable transfectants (human) (P05106 27-788, chain 2 of 2, further chain): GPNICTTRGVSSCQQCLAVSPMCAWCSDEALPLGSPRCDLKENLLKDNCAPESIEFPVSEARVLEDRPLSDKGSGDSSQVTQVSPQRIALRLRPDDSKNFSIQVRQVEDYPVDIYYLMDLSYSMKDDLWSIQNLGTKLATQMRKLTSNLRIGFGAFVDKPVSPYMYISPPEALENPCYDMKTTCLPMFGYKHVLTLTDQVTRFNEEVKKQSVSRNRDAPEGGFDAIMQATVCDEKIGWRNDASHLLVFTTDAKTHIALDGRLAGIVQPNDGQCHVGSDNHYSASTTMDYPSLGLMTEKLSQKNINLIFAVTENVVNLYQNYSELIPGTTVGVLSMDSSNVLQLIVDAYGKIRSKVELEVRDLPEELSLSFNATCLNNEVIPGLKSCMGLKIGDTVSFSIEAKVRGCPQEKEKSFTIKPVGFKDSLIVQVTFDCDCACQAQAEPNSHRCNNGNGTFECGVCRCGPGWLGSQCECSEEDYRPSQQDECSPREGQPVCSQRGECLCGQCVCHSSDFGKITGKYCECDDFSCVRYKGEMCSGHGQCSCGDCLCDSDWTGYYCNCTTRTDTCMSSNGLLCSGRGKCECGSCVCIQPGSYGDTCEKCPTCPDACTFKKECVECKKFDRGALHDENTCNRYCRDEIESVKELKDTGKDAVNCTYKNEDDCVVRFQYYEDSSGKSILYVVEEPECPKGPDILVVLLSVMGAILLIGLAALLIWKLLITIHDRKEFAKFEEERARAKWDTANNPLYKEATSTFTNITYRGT

Chain of integrin α5β1, intact, on wild type K562 cells (human (endogenous in K562)) (P08648 42-1049, chain 1 of 2): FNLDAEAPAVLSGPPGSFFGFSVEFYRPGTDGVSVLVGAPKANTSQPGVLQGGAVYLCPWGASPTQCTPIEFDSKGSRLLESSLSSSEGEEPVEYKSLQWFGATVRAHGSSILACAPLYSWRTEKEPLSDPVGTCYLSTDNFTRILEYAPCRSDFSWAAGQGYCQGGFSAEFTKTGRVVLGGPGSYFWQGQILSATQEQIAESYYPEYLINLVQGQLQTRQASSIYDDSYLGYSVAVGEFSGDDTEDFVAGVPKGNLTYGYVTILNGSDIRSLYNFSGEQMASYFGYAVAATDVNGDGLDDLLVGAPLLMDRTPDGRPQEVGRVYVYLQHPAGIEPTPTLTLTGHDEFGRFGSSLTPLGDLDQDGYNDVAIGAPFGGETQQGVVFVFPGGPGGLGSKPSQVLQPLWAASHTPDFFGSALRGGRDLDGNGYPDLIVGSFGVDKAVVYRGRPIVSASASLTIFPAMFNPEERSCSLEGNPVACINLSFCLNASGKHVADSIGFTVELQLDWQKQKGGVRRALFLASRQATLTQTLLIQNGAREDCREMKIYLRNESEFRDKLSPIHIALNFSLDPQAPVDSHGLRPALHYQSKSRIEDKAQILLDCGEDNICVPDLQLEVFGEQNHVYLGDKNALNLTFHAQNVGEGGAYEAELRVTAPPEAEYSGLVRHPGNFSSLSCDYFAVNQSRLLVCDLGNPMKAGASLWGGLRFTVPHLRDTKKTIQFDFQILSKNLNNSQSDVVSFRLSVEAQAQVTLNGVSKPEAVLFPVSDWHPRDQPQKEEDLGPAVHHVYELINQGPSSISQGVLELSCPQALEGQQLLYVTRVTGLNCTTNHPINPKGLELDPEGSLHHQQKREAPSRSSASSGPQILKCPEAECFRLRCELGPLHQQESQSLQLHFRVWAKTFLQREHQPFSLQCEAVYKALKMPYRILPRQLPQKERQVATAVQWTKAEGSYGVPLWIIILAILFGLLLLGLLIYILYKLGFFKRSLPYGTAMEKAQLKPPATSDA
Chain of integrin α5β1, intact, on wild type K562 cells (human (endogenous in K562)) (P05556 21-798, chain 2 of 2, further chain): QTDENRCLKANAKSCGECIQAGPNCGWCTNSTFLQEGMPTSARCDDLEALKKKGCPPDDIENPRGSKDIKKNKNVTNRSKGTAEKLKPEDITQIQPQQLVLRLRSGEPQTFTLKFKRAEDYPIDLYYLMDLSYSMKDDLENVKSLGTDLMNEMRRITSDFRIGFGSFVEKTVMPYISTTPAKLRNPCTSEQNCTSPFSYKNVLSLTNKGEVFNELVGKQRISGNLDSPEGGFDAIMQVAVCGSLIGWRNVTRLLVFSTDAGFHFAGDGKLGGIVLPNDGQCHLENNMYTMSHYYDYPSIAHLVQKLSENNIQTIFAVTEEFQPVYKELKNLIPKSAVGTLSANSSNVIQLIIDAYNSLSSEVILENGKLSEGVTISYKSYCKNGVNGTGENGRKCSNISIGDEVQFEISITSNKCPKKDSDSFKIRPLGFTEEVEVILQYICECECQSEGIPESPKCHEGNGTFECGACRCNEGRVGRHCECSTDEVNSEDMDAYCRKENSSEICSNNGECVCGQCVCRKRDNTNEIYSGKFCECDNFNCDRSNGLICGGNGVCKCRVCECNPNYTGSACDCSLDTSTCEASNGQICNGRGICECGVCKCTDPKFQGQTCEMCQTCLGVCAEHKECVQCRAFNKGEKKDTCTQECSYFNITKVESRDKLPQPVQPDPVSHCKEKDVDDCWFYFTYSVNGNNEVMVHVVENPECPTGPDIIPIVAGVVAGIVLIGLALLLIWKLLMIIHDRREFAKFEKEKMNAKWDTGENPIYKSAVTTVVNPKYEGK

pKd [1]: 7.07
pKd [2]: 7.62
pKd [3]: 7.55
Substance: cRGDfK peptide with lysine side chain conjugated with TideFluor5WS

— publication PMC9719539, “Single-molecule characterization of subtype-specific β1 integrin mechanics” (Nature Communications, 2022)
